From patent US20230095004 (Aptitude Medical Systems, Inc., published 2023)
Changes are numbered by the printed parent chain.

B1: AMSB107.5 (ssRNA)
RNA: AUGCAUGCAUUUUUACCAGUGAGUCGGAUCUCCGCAUAGAUAAGCCAACAAACGUACAUUCUCUGUUAGUAUUUUCUGCG
modifications: 2'-F all
B2: AMSB107.17 (ssRNA)
RNA: B1 RNA with A1G, U2C, G3U, C4G, A5U, U6A, G7C, C8A, A9G, U10C
modifications: 2'-F all
B3: AMSB107.15 (ssRNA)
RNA: B1 RNA with A1U, U2G, G3C, C4A, A5U, U6C, G7U, C8G, A9C, U10A
modifications: 2'-F all
B4: AMSB107.10 (ssRNA)
RNA: B1 RNA with A1U, U2G, G3C, C4A, A5U, U6G, G7C, C8A, A9U
modifications: 2'-F all
B5: AMSB107.13 (ssRNA)
RNA: B1 RNA with A1C, U2C, C4G, A5U, U6A, G7C, A9G, U10G
modifications: 2'-F all
B6: AMSB107.6 (ssRNA)
RNA: UGCAUGCAACCAGUGAGUCGGAUCUCCGCAUAGAUAAGCCAACAAACGUACAUUCUCUGUUAGUAUUUUCUGCG
modifications: 2'-F all
B7: AMSB107.1 (ssRNA)
RNA: UGCCAGUGAGUCGGAUCUCCGCAUAGAUAAGCCAACAAACGUACAUUCUCUGUUAGUAUUUUCUGCG
modifications: 2'-F all
B8: AMSB107.8 (ssRNA)
RNA: UUUUGCAUGCAUUUUACCAGUGAGUCGGAUCUCCGCAUAGAUAAGCCAACAAACGUACAUUCUCUGUUAGUAUUUUCUGCG
modifications: 2'-F all
B9: AMSB107.4 (ssRNA)
RNA: GCAUGCUUUUACCAGUGAGUCGGAUCUCCGCAUAGAUAAGCCAACAAACGUACAUUCUCUGUUAGUAUUUUCUGCG
modifications: 2'-F all
B10: AMSB107.9 (ssRNA)
RNA: B9 RNA with G1U, C2G, A3C, U4A, G5U, C6G, U7C, U8A
modifications: 2'-F all
B11: AMSB107.11 (ssRNA)
RNA: UGCAUGCAUUUUCCAGUGAGUCGGAUCUCCGCAUAGAUAAGCCAACAAACGUACAUUCUCUGUUAGUAUUUUCUGCG
modifications: 2'-F all
B12: AMSB107.14 (ssRNA)
RNA: UGCACUGCAUUUUACCAGUGAGUCGGAUCUCCGCAUAGAUAAGCCAACAAACGUACAUUCUCUGUUAGUAUUUUCUGCG
modifications: 2'-F all
B13: AMSB107.2 (ssRNA)
RNA: UGCCAGUGAGUCGGAUCUCCACAGUAGAUAAGCCAACAAACGUACAUUCUCUGUUAGUAUUUUCCUGUG
modifications: 2'-F all
B14: AMSB107.12 (ssRNA)
RNA: CUGUACAGUUUUACCAGUGAGUCGGAUCUCCGCAUAGAUAAGCCAACAAACGUACAUUCUCUGUUAGUAUUUUCUGCG
modifications: 2'-F all
B15: AMSB107 (ssRNA)
RNA: B14 RNA with C1U, U2G, G3C, U4A, A5U, C6G, A7C, G8A
modifications: 2'-F all
B16: AMSB107.18 (ssRNA)
RNA: B14 RNA with C1U, U2G, G3C, U4A, A5U, C6G, A7C, G8A
modifications: 2'-F with LNA (L) at positions as printed
B17: AMSB107.20 (ssRNA)
RNA: B14 RNA with C1U, U2G, G3C, U4A, A5U, C6G, A7C, G8A
modifications: 2'-F with LNA (L) in stems as printed
B18: AMSB107.21 (ssRNA)
RNA: B14 RNA with C1U, U2G, G3C, U4A, A5U, C6G, A7C, G8A
modifications: 2'-F with 2'-OMe in stems as printed
B19: AMSB107.P40K (ssRNA)
RNA: B14 RNA with C1U, U2G, G3C, U4A, A5U, C6G, A7C, G8A
modifications: 2'-F all nucleotides; 5' 40 kDa PEG (SEQ 203 as printed in the description)
B20: AMS0433.1 (ssRNA)
RNA: ACCCUUGCUUGCGUAGCAUUUUACCAGUGAGUCGGAUCUCCGCAUAUCUGCG
modifications: 2'-F all
B21: AMS0433.3 (ssRNA)
RNA: B20 RNA with U21C, A23G
modifications: 2'-F all
B22: AMS0433.4 (ssRNA)
RNA: B20 RNA with U14C, U21C, A23G
modifications: 2'-F all
B23: AMS0433.11 (ssRNA)
RNA: CACAGAGAACUGUGCCUAGCAUUUUGCCAGUGAGUCGGAUCUCCGCAUAUCUGCG
modifications: 2'-F all
B24: AMS0433.13 (ssRNA)
RNA: UUUUGUGCUUGCGUAGCAACCCUCCAGUGAGUCGGAUCUCCGCAUAUCUGCG
modifications: 2'-F all
B25: AMS0433.5 (ssRNA)
RNA: CACCAUGCUUGCGUAGCAUCAUCCAGUGAGUCGGAUCUCCGCAUAUCUGCG
modifications: 2'-F all
B26: AMS0433.m6 (ssRNA)
RNA: UGCAUGCAUUUUACCAGUGAGUCGGAUCUCCGCAUAUCUGCG
modifications: mixed 2'-F and 2'-OMe: mUmGmCmAmUmGmCmAmUmUmUmUmAmCfCfAfGfUfGfAfGfUmCfGfGfAmUfCfUfCfCfGfCfAfUfAfUfCfUfGfCfG
B27: AMS0433.m4 (ssRNA)
RNA: B26 RNA
modifications: mixed 2'-F and 2'-OMe: fUfGfCfAfUfGfCfAmUmUmUmUmAmCfCfAfGfUfGfAfGfUmCfGfGfAmUfCfUfCmCmGmCmAmUmAmUmCmUmGmCmG

Target: T1, VEGF-165 (VEGF-A) (Homo sapiens)
T1 chain: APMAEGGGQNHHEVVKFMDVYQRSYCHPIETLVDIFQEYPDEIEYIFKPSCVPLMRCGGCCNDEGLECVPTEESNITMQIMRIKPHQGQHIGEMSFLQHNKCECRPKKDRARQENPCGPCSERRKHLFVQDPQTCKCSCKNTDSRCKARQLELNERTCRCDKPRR
Assay: competition; VEGF/VEGFR2 inhibition
Conditions: tags: R&D Systems 293-VE-050; chain copies: 2
B1 was tested, and the IC50 was 81 pM. B2 gave an IC50 of 83 pM. In the case of B3, the IC50 is reported as 15600 pM. For B4, the IC50 was 170 pM. In the case of B5, the IC50 is reported as 1000 pM. For B6, the IC50 was 551 pM. B7 showed an IC50 of 21500 pM. Binder B8 has an IC50 of 255 pM. Binder B9 has an IC50 of 81 pM. For B10, the IC50 was 147 pM. B11 gave an IC50 of 114 pM. In the case of B12, the IC50 is reported as 3270 pM. With B13 the IC50 was 19400 pM. In the case of B14, the IC50 is reported as 1030 pM. In the case of B15, the IC50 is reported as 73 pM. For B16, the IC50 was 422 pM. Binder B17 has an IC50 of 68 pM. B18 gave an IC50 of 63 pM.

What follows are binders tested against T2, VEGF-121 (VEGF-A) (Homo sapiens, UniProt P15692 SEQ:1-121) (assay: flow; bead-bound aptamer; PBSMCT 2.5 mM MgCl2 1 mM CaCl2, 37 C). Conditions: tags: recombinant; chain copies: 2; label: biotin.
ACCCUUGCUUGCGUAGCAUUUUACCAGUGAGUCGGAUCUC (ssRNA, 2'-F all nucleotides) showed a Kd of 15200 pM.

Target: T1, VEGF-165 (VEGF-A)
Assay: competition; VEGF receptor competition
Conditions: tags: recombinant; chain copies: 2
Work on B19 yielded an IC50 of 36 pM.

Target: T1, VEGF-165 (VEGF-A)
Assay: competition; VEGFR2 blocking ELISA, PBSMCT, 37 C
Conditions: tags: R&D Systems 293-VE-050; chain copies: 2
For ACCCUUGCUUGCGUAGCAUUUUACCAGUGAGUCGGAUCUC (ssRNA, 2'-F all), the IC50 was 27500 pM. UGCCAGUGAGUCGGAUCUCCUGUGAGAACACAG (ssRNA, 2'-F all) [AMS0433.10] was tested, and the IC50 was 27200 pM. Work on B20 yielded an IC50 of 1730 pM. Work on B21 yielded an IC50 of 2100 pM. B22 was tested, and the IC50 was 1960 pM. In the case of GCUGUACAGCUUUUACCAGUGAGUCGGAUCUCCGCAUAUCUGCG (ssRNA, 2'-F all) [AMS0433.21], the IC50 is reported as 64 pM. For UGCCAGUGAGUCGGAUCUCCGCAUAUCUGCGCGCAUAUCUGCG (ssRNA, 2'-F all) [AMS0433.2], the IC50 was 9260 pM. With CCCCAUCUGCGAAGCAGUCAGCCAGUGAGUCGGAUCUCCGCAUAUCUGCG (ssRNA, 2'-F all) [AMS0433.6] the IC50 was 3490 pM. With UUUUGCAUGCAUUUUACCAGUGAGUCGGAUCUCCGCAUAUCUGCG (ssRNA, 2'-F all) [AMS0433.20] the IC50 was 44 pM. B23 gave an IC50 of 29500 pM. With CGUAGCAUUUUGCCAGUGAGUCGGAUCUCCGCAUAUCUGCG (ssRNA, 2'-F all) [AMS0433.8] the IC50 was 42900 pM. In the case of CUGUACAGUUUUACCAGUGAGUCGGAUCUCCGCAUAUCUGCG (ssRNA, 2'-F all) [AMS0433.19], the IC50 is reported as 56 pM. Binder B24 has an IC50 of 12300 pM. Work on ACCCUUGCUUGCGUAGCAUUUUACCAGUGAGUCGGAUCUCUGCAUGCA (ssRNA, 2'-F all) [AMS0433.15] yielded an IC50 of 2160 pM. Work on CACAGAGAACUGUGUGCCAGUGAGUCGGAUCUCCGCAUAUCUGCG (ssRNA, 2'-F all) [AMS0433.7] yielded an IC50 of 8230 pM. For B25, the IC50 was 2500 pM. UGCACUGCAUUUUACCAGUGAGUCGGAUCUCCGCAUAUCUGCG (ssRNA, 2'-F all) [AMS0433.17] showed an IC50 of 983 pM. UUUUACCAGUGAGUCGGAUCUCUGCAUGCA (ssRNA, 2'-F all) [AMS0433.16] showed an IC50 of 1200 pM. For UGCAUCUGCAUUUUACCAGUGAGUCGGAUCUCCGCAUAUCUGCG (ssRNA, 2'-F all) [AMS0433.18], the IC50 was 8340 pM.

These binders were tested against T3, Angiopoietin-2 (Ang2) (Homo sapiens, UniProt O15123 O15123:19-496) (assay: competition; Ang2/Tie2 competition (column printed Tier2)). Conditions: tags: His tag; R&D Systems 623-AN.
T3 sequence (O15123 19-496, one chain of several): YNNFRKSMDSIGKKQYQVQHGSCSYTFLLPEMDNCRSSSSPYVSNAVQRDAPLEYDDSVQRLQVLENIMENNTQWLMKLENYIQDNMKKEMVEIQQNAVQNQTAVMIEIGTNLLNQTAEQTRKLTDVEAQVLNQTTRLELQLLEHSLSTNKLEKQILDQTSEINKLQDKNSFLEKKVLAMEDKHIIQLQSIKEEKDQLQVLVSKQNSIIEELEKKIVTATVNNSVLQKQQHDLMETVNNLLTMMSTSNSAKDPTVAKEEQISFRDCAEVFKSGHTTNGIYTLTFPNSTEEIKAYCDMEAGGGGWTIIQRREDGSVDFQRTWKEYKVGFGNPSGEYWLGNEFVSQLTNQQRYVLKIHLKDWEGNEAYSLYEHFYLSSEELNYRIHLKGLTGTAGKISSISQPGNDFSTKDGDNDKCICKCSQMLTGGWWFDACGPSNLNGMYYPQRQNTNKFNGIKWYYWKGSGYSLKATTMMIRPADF
B19 showed an IC50 of 45 pM.

The binders below were run against T3, Angiopoietin-2 (Ang2) (assay: competition; Ang2/Tie2 inhibition). Conditions: tags: His tag; R&D Systems 623-AN.
For B15, the IC50 was roughly 100 pM.

Target: T1, VEGF-165 (VEGF-A)
Assay: competition; VEGFR2 competition ELISA, 50 pM VEGF-165, 37 C
Conditions: tags: recombinant; chain copies: 2
In the case of B26, the IC50 is reported as 41 pM. B27 gave an IC50 of 40 pM.

Same assay, conditions: tags: recombinant; chain copies: 2; label: biotin
UGCAUGCAUUUUACCAGUGAGUCGGAUCUCCGCAUAUCUGCG (ssRNA, 2'-F all nucleotides) [AMS0433] was tested, and the IC50 was 37 pM.

Target: T1, VEGF-165 (VEGF-A)
Assay: flow; PBSMCT, 37 C
Conditions: tags: recombinant; chain copies: 2; label: biotin
ACCCUUGCUUGCGUAGCAUUUUACCAGUGAGUCGGAUCUC (ssRNA, 2'-F all nucleotides) was tested, and the Kd was 11100 pM. UGCAUGCAUUUUACCAGUGAGUCGGAUCUCCGCAUAUCUGCG (ssRNA, 2'-F all nucleotides) [AMS0433] was tested, and the Kd was 41 pM.

What follows are binders tested against T2, VEGF-121 (VEGF-A) (assay: flow; PBSMCT, 37 C). Conditions: tags: recombinant; chain copies: 2; label: biotin.
UGCAUGCAUUUUACCAGUGAGUCGGAUCUCCGCAUAUCUGCG (ssRNA, 2'-F all nucleotides) [AMS0433] was tested, and the Kd was 52 pM.
